# Details: Equus caballus, pH 1.8, Thermal, HCl 20 mM, reversible: yes
# Sequence of Cytochrome c wild type, P00004 (P00004 whole entry): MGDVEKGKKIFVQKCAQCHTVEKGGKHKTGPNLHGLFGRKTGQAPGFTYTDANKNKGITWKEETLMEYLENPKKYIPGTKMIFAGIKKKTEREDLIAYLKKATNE
substance,measurement,setting,value
"Cytochrome c wild type, P00004",Tm,"CD, NaClO4 10 mM",25.8 °C
same,heat capacity change of unfolding,"CD, NaClO4 10 mM",0.43 kcal/mol/K
same,unfolding enthalpy (van 't Hoff),"CD, NaClO4 10 mM",28.2 kcal/mol
same,Tm,"CD, NaClO4 20 mM",37 °C
same,heat capacity change of unfolding,"CD, NaClO4 20 mM",0.43 kcal/mol/K
same,unfolding enthalpy (van 't Hoff),"CD, NaClO4 20 mM",32.5 kcal/mol
same,Tm,"CD, NaClO4 50 mM",47 °C
same,heat capacity change of unfolding,"CD, NaClO4 50 mM",0.43 kcal/mol/K
same,unfolding enthalpy (van 't Hoff),"CD, NaClO4 50 mM",38 kcal/mol
same,Tm,"DSC, NaClO4 20 mM",34.4 °C
same,heat capacity change of unfolding,"DSC, NaClO4 20 mM",0.31 kcal/mol/K
same,unfolding enthalpy (calorimetric),"DSC, NaClO4 20 mM",32.3 kcal/mol
same,unfolding enthalpy (van 't Hoff),"DSC, NaClO4 20 mM",31.8 kcal/mol
same,Tm,"DSC, NaClO4 30 mM",40 °C
same,heat capacity change of unfolding,"DSC, NaClO4 30 mM",0.31 kcal/mol/K
same,unfolding enthalpy (calorimetric),"DSC, NaClO4 30 mM",31.4 kcal/mol
same,unfolding enthalpy (van 't Hoff),"DSC, NaClO4 30 mM",31.4 kcal/mol
same,Tm,"DSC, NaClO4 40 mM",42.6 °C
same,heat capacity change of unfolding,"DSC, NaClO4 40 mM",0.31 kcal/mol/K
same,unfolding enthalpy (calorimetric),"DSC, NaClO4 40 mM",34.9 kcal/mol
same,unfolding enthalpy (van 't Hoff),"DSC, NaClO4 40 mM",34.9 kcal/mol
same,Tm,"DSC, NaClO4 50 mM",44.1 °C
same,heat capacity change of unfolding,"DSC, NaClO4 50 mM",0.31 kcal/mol/K
same,unfolding enthalpy (calorimetric),"DSC, NaClO4 50 mM",33.7 kcal/mol
same,unfolding enthalpy (van 't Hoff),"DSC, NaClO4 50 mM",33.7 kcal/mol
